Consider 5 molecules from paper PMC7917804.

In the experiment the target is poly(A)-binding protein (PABP), P11940. Briefly: co-immunoprecipitation with anti-FLAG antibody, Western blot quantified with ImageJ. As to conditions: chain shown with the change, HeLa cells, parent: est. 1.0, read off a plot.
Sequence of poly(A)-binding protein (PABP), P11940 (P11940 whole entry): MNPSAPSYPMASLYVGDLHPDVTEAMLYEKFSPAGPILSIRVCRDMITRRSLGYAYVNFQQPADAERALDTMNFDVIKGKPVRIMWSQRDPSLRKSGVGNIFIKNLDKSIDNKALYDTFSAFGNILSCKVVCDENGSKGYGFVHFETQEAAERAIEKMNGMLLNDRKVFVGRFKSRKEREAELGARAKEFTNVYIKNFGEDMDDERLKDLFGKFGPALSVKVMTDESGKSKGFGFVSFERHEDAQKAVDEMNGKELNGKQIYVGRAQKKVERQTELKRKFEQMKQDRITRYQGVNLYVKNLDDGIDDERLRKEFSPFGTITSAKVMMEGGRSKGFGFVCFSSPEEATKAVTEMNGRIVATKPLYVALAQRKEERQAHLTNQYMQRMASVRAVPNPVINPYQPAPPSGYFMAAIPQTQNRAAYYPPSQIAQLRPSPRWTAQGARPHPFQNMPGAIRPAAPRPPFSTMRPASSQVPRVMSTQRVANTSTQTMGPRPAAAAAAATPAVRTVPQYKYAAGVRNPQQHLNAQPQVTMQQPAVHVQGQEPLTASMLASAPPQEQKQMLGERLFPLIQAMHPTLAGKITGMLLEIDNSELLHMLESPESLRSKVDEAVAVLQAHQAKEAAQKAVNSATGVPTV

B1: FLAG-HA-SBP (FHS)-tagged full-length TNRC6A, wild type, Q8NDV7-2 S1616A; S1691A (protein)
chain: MDADSASSSESERNITIMASGNTGGEKDGLRNSTGLGSQNKFVVGSSSNNVGHGSSTGPWGFSHGAIISTCQVSVDAPESKSESSNNRMNAWGTVSSSSNGGLNPSTLNSASNHGAWPVLENNGLALKGPVGSGSSGINIQCSTIGQMPNNQSINSKVSGGSTHGTWGSLQETCESEVSGTQKVSFSGQPQNITTEMTGPNNTTNFMTSSLPNSGSVQNNELPSSNTGAWRVSTMNHPQMQAPSGMNGTSLSHLSNGESKSGGSYGTTWGAYGSNYSGDKCSGPNGQANGDTVNATLMQPGVNGPMGTNFQVNTNKGGGVWESGAANSQSTSWGSGNGANSGGSRRGWGTPAQNTGTNLPSVEWNKLPSNQHSNDSANGNGKTFTNGWKSTEEEDQGSATSQTNEQSSVWAKTGGTVESDGSTESTGRLEEKGTGESQSRDRRKIDQHTLLQSIVNRTDLDPRVLSNSGWGQTPIKQNTAWDTETSPRGERKTDNGTEAWGSSATQTFNSGACIDKTSPNGNDTSSVSGWGDPKPALRWGDSKGSNCQGGWEDDSAATGMVKSNQWGNCKEEKAAWNDSQKNKQGWGDGQKSSQGWSVSASDNWGETSRNNHWGEANKKSSSGGSDSDRSVSGWNELGKTSSFTWGNNINPNNSSGWDESSKPTPSQGWGDPPKSNQSLGWGDSSKPVSSPDWNKQQDIVGSWGIPPATGKPPGTGWLGGPIPAPAKEEEPTGWEEPSPESIRRKMEIDDGTSAWGDPSKYNYKNVNMWNKNVPNGNSRSDQQAQVHQLLTPASAISNKEASSGSGWGEPWGEPSTPATTVDNGTSAWGKPIDSGPSWGEPIAAASSTSTWGSSSVGPQALSKSGPKSMQDGWCGDDMPLPGNRPTGWEEEEDVEIGMWNSNSSQELNSSLNWPPYTKKMSSKGLSGKKRRRERGMMKGGNKQEEAWINPFVKQFSNISFSRDSPEENVQSNKMDLSGGMLQDKRMEIDKHSLNIGDYNRTVGKGPGSRPQISKESSMERNPYFDKDGIVADESQNMQFMSSQSMKLPPSNSALPNQALGSIAGLGMQNLNSVRQNGNPSMFGVGNTAAQPRGMQQPPAQPLSSSQPNLRAQVPPPLLSPQVPVSLLKYAPNNGGLNPLFGPQQVAMLNQLSQLNQLSQISQLQRLLAQQQRAQSQRSVPSGNRPQQDQQGRPLSVQQQMMQQSRQLDPNLLVKQQTPPSQQQPLHQPAMKSFLDNVMPHTTPELQKGPSPINAFSNFPIGLNSNLNVNMDMNSIKEPQSRLRKWTTVDSISVNTSLDQNSSKHGAISSGFRLEESPFVPYDFMNSSTSPASPPGSIGDGWPRAKSPNGSSSVNWPPEFRPGEPWKGYPNIDPETDPYVTPGSVINNLSINTVREVDHLRDRNSGSSSSLNTTLPSTSAWSSIRASNYNVPLSSTAQSTSARNSDSKLTWSPGSVTNTSLAHELWKVPLPPKNITAPSRPPPGLTGQKPPLSTWDNSPLRIGGGWGNSDARYTPGSSWGESSSGRITNWLVLKNLTPQIDGSTLRTLCMQHGPLITFHLNLPHGNALVRYSSKEEVVKAQKSLHMCVLGNTTILAEFASEEEISRFFAQSQSLTPAPGWQSLGSSQSRLGSLDCSHSFSSRTDLNHWNGAGLSGTNCGDLHGTSLWGTPHYSTSLWGPPSSSDPRGISSPAPINAFLSVDHLGGGGESM
In the case of B1, where the note is “two independent experiments”, the response was determined as 0.89.

B2: FLAG-HA-SBP (FHS)-tagged full-length TNRC6A, wild type, Q8NDV7-2 S1332A; S1346A (protein)
chain: MDADSASSSESERNITIMASGNTGGEKDGLRNSTGLGSQNKFVVGSSSNNVGHGSSTGPWGFSHGAIISTCQVSVDAPESKSESSNNRMNAWGTVSSSSNGGLNPSTLNSASNHGAWPVLENNGLALKGPVGSGSSGINIQCSTIGQMPNNQSINSKVSGGSTHGTWGSLQETCESEVSGTQKVSFSGQPQNITTEMTGPNNTTNFMTSSLPNSGSVQNNELPSSNTGAWRVSTMNHPQMQAPSGMNGTSLSHLSNGESKSGGSYGTTWGAYGSNYSGDKCSGPNGQANGDTVNATLMQPGVNGPMGTNFQVNTNKGGGVWESGAANSQSTSWGSGNGANSGGSRRGWGTPAQNTGTNLPSVEWNKLPSNQHSNDSANGNGKTFTNGWKSTEEEDQGSATSQTNEQSSVWAKTGGTVESDGSTESTGRLEEKGTGESQSRDRRKIDQHTLLQSIVNRTDLDPRVLSNSGWGQTPIKQNTAWDTETSPRGERKTDNGTEAWGSSATQTFNSGACIDKTSPNGNDTSSVSGWGDPKPALRWGDSKGSNCQGGWEDDSAATGMVKSNQWGNCKEEKAAWNDSQKNKQGWGDGQKSSQGWSVSASDNWGETSRNNHWGEANKKSSSGGSDSDRSVSGWNELGKTSSFTWGNNINPNNSSGWDESSKPTPSQGWGDPPKSNQSLGWGDSSKPVSSPDWNKQQDIVGSWGIPPATGKPPGTGWLGGPIPAPAKEEEPTGWEEPSPESIRRKMEIDDGTSAWGDPSKYNYKNVNMWNKNVPNGNSRSDQQAQVHQLLTPASAISNKEASSGSGWGEPWGEPSTPATTVDNGTSAWGKPIDSGPSWGEPIAAASSTSTWGSSSVGPQALSKSGPKSMQDGWCGDDMPLPGNRPTGWEEEEDVEIGMWNSNSSQELNSSLNWPPYTKKMSSKGLSGKKRRRERGMMKGGNKQEEAWINPFVKQFSNISFSRDSPEENVQSNKMDLSGGMLQDKRMEIDKHSLNIGDYNRTVGKGPGSRPQISKESSMERNPYFDKDGIVADESQNMQFMSSQSMKLPPSNSALPNQALGSIAGLGMQNLNSVRQNGNPSMFGVGNTAAQPRGMQQPPAQPLSSSQPNLRAQVPPPLLSPQVPVSLLKYAPNNGGLNPLFGPQQVAMLNQLSQLNQLSQISQLQRLLAQQQRAQSQRSVPSGNRPQQDQQGRPLSVQQQMMQQSRQLDPNLLVKQQTPPSQQQPLHQPAMKSFLDNVMPHTTPELQKGPSPINAFSNFPIGLNSNLNVNMDMNSIKEPQSRLRKWTTVDSISVNTSLDQNSSKHGAISSGFRLEESPFVPYDFMNSSTSPAAPPGSIGDGWPRAKAPNGSSSVNWPPEFRPGEPWKGYPNIDPETDPYVTPGSVINNLSINTVREVDHLRDRNSGSSSSLNTTLPSTSAWSSIRASNYNVPLSSTAQSTSARNSDSKLTWSPGSVTNTSLAHELWKVPLPPKNITAPSRPPPGLTGQKPPLSTWDNSPLRIGGGWGNSDARYTPGSSWGESSSGRITNWLVLKNLTPQIDGSTLRTLCMQHGPLITFHLNLPHGNALVRYSSKEEVVKAQKSLHMCVLGNTTILAEFASEEEISRFFAQSQSLTPSPGWQSLGSSQSRLGSLDCSHSFSSRTDLNHWNGAGLSGTNCGDLHGTSLWGTPHYSTSLWGPPSSSDPRGISSPSPINAFLSVDHLGGGGESM
For B2, the response (two independent experiments) was found to be 1.7.

B3: FLAG-HA-SBP (FHS)-tagged TNRC6A-SD-WT, Q8NDV7-2 S1616A; S1691A (protein)
chain: PLHQPAMKSFLDNVMPHTTPELQKGPSPINAFSNFPIGLNSNLNVNMDMNSIKEPQSRLRKWTTVDSISVNTSLDQNSSKHGAISSGFRLEESPFVPYDFMNSSTSPASPPGSIGDGWPRAKSPNGSSSVNWPPEFRPGEPWKGYPNIDPETDPYVTPGSVINNLSINTVREVDHLRDRNSGSSSSLNTTLPSTSAWSSIRASNYNVPLSSTAQSTSARNSDSKLTWSPGSVTNTSLAHELWKVPLPPKNITAPSRPPPGLTGQKPPLSTWDNSPLRIGGGWGNSDARYTPGSSWGESSSGRITNWLVLKNLTPQIDGSTLRTLCMQHGPLITFHLNLPHGNALVRYSSKEEVVKAQKSLHMCVLGNTTILAEFASEEEISRFFAQSQSLTPAPGWQSLGSSQSRLGSLDCSHSFSSRTDLNHWNGAGLSGTNCGDLHGTSLWGTPHYSTSLWGPPSSSDPRGISSPAPINAFLSVDHLGGGGESM
With B3, the response (three independent experiments) was 0.81.

B4: FLAG-HA-SBP (FHS)-tagged TNRC6A-SD-WT, Q8NDV7-2 S1332D; S1346D (protein)
chain: PLHQPAMKSFLDNVMPHTTPELQKGPSPINAFSNFPIGLNSNLNVNMDMNSIKEPQSRLRKWTTVDSISVNTSLDQNSSKHGAISSGFRLEESPFVPYDFMNSSTSPADPPGSIGDGWPRAKDPNGSSSVNWPPEFRPGEPWKGYPNIDPETDPYVTPGSVINNLSINTVREVDHLRDRNSGSSSSLNTTLPSTSAWSSIRASNYNVPLSSTAQSTSARNSDSKLTWSPGSVTNTSLAHELWKVPLPPKNITAPSRPPPGLTGQKPPLSTWDNSPLRIGGGWGNSDARYTPGSSWGESSSGRITNWLVLKNLTPQIDGSTLRTLCMQHGPLITFHLNLPHGNALVRYSSKEEVVKAQKSLHMCVLGNTTILAEFASEEEISRFFAQSQSLTPSPGWQSLGSSQSRLGSLDCSHSFSSRTDLNHWNGAGLSGTNCGDLHGTSLWGTPHYSTSLWGPPSSSDPRGISSPSPINAFLSVDHLGGGGESM
For the molecule B4, where the note is “three independent experiments”, the response was found to be 1.1.

B5: FLAG-HA-SBP (FHS)-tagged TNRC6A-SD-WT, Q8NDV7-2 S1332A; S1346A (protein)
chain: PLHQPAMKSFLDNVMPHTTPELQKGPSPINAFSNFPIGLNSNLNVNMDMNSIKEPQSRLRKWTTVDSISVNTSLDQNSSKHGAISSGFRLEESPFVPYDFMNSSTSPAAPPGSIGDGWPRAKAPNGSSSVNWPPEFRPGEPWKGYPNIDPETDPYVTPGSVINNLSINTVREVDHLRDRNSGSSSSLNTTLPSTSAWSSIRASNYNVPLSSTAQSTSARNSDSKLTWSPGSVTNTSLAHELWKVPLPPKNITAPSRPPPGLTGQKPPLSTWDNSPLRIGGGWGNSDARYTPGSSWGESSSGRITNWLVLKNLTPQIDGSTLRTLCMQHGPLITFHLNLPHGNALVRYSSKEEVVKAQKSLHMCVLGNTTILAEFASEEEISRFFAQSQSLTPSPGWQSLGSSQSRLGSLDCSHSFSSRTDLNHWNGAGLSGTNCGDLHGTSLWGTPHYSTSLWGPPSSSDPRGISSPSPINAFLSVDHLGGGGESM
With B5, the response (three independent experiments) was 1.4.
